How the values were obtained:
[1] = molecular target: T1, human CD137 expressed on cells (Jurkat human CD137 NF-kB luciferase reporter cells; human CD8+ T cells) (human, UniProt Q07011 24-255); experiment: cell-based or functional assay
[2] = molecular target: T2, recombinant Fc-tagged ectodomain of human CD137 (Acro Biosystems 41B-H5258) (human, UniProt Q07011 24-186); experiment: SPR, Biacore 8K, single-cycle kinetics; Fc-tagged ectodomain captured on Protein G chip; 1:1 model
T2 construct: Bought protein; not shown: Fc tag
Protocol: (§1) Binding of Humabody® VH constructs was measured using a single-cycle kinetics method using the BIAcore 8K instrument with 90 second sample injections with a sample concentration range of low nanomolar to high nanomolar. […] The Protein G sensor surface was regenerated with a 20 second injection of 10 mM Glycine buffer, pH 1.5 (GE Healthcare BR100354). Data were analysed using a 1:1 binding model in Biacore Insight Evaluation software, including Humabody® VH constructs with two PD-1 arms.

[3] = molecular target: T3, recombinant Fc-tagged ectodomain of human PD1 (Acro Biosystems PD1-H5257) (human, UniProt Q15116 25-170); experiment: SPR, Biacore 8K, single-cycle kinetics; Fc-tagged ectodomain captured on Protein G chip; 1:1 model (construct with two PD-1 arms)
T3 construct: Bought protein; not shown: Fc tag
Protocol: as §1

[4] = molecular target: T1, human CD137 expressed on cells (Jurkat …); experiment: cell-based or functional assay; remark: listed apart in the source

Binder | Jurkat-CD137/CHO-PD-1 Reporter Assay EC50 [1] [pM] | Kd [2] [pM] | koff [2] [s⁻¹] | kon [2] [M⁻¹ s⁻¹] | Kd [3] [pM] | koff [3] [s⁻¹] | kon [3] [M⁻¹ s⁻¹] | Jurkat-CD137/CHO-PSMA Reporter Assay EC50 [4] [pM]
TPP-1438 CD137A-6GS-HSA2-6GS-PD138G7(G109D)-6GS-PD138G7(G109D) (bispecific antibody, Single-chain fusion of four VH single domains, two PD-1 arms) EVQLVESGGGLVQPGGSLRLSCAASGFTLSNYWMNWVRQAPGKGLEWVANINQDGSERYYVDSVKGRFTISRDNAKNSLYLQMNSLRAEDTAVYYCARGGEGYGVDHYGLDVSGQGTTVTVSSGGGGSGGGGSGGGGSGGGGSGGGGSGGGGSEVQLVESGGGLVKPGGSLRLSCAASGFTFSNYNMNWVRQAPGKGLEWVSSISSAGTHIYYADSVKGRFTISRDNAKNSLYLQMNSLRAEDTAVYYCARDPHSTGWYKDFDYWGQGTLVTVSSGGGGSGGGGSGGGGSGGGGSGGGGSGGGGSEVQLVESGGGVVRPGGSLRLSCAASGFTFDDYAMSWVRQAPGKGLEWVSGITWNGGSTGYADSVKDRFTISRDNAKNSLYLQMNSLRAEDTALYYCVRDKYSYAWSYDDFDIWGQGTMVTVSSGGGGSGGGGSGGGGSGGGGSGGGGSGGGGSEVQLVESGGGVVRPGGSLRLSCAASGFTFDDYAMSWVRQAPGKGLEWVSGITWNGGSTGYADSVKDRFTISRDNAKNSLYLQMNSLRAEDTALYYCVRDKYSYAWSYDDFDIWGQGTMVTVSS | 4.66 | 620 | 0.00011 | 500000 | 95.1 | 5.02e-05 | 527000 | –
TPP-1439 PD138G7(G109D)-6GS-PD138G7(G109D)-6GS-CD137A-7-6GS-HSA2 (bispecific antibody, Single-chain fusion of four VH single domains, two PD-1 arms) EVQLVESGGGVVRPGGSLRLSCAASGFTFDDYAMSWVRQAPGKGLEWVSGITWNGGSTGYADSVKDRFTISRDNAKNSLYLQMNSLRAEDTALYYCVRDKYSYAWSYDDFDIWGQGTMVTVSSGGGGSGGGGSGGGGSGGGGSGGGGSGGGGSEVQLVESGGGVVRPGGSLRLSCAASGFTFDDYAMSWVRQAPGKGLEWVSGITWNGGSTGYADSVKDRFTISRDNAKNSLYLQMNSLRAEDTALYYCVRDKYSYAWSYDDFDIWGQGTMVTVSSGGGGSGGGGSGGGGSGGGGSGGGGSGGGGSEVQLVESGGGLVQPGGSLRLSCAASGFTLSNYWMNWVRQAPGKGLEWVANINQDGSERYYVDSVKGRFTISRDNAKNSLYLQMNSLRAEDTAVYYCARGGEGYGVDHYGLDVSGQGTTVTVSSGGGGSGGGGSGGGGSGGGGSGGGGSGGGGSEVQLVESGGGLVKPGGSLRLSCAASGFTFSNYNMNWVRQAPGKGLEWVSSISSAGTHIYYADSVKGRFTISRDNAKNSLYLQMNSLRAEDTAVYYCARDPHSTGWYKDFDYWGQGTLVTVSS | 14.5 | 506 | 0.000107 | 800000 | 68.3 | 5.12e-05 | 750000 | –
TPP-799 PSMA-6GS-CD137-6GS-HSA (bispecific antibody) EVQLVESGGGVVQPGRSLRLSCAASGFSFSGYGMHWVRQAPGKGLEWVAYISYDGSNKYYADSVKGRFTISRDNSKNTLYLQMNSLRAEDTAVYYCAKDPAWGLRLGESSSYDFDIWGQGTMVTVSSGGGGSGGGGSGGGGSGGGGSGGGGSGGGGSEVQLVESGGGVVQPGGSLRLSCAASGFTFSNYGMHWVRQAPGKGLEWVAVISNDGNTKTYADSVKGRFTISRDNSKNTLYLQMNSLRAEDTAVYYCAQDETTTVTASYYFDYWGQGTLVTVSSGGGGSGGGGSGGGGSGGGGSGGGGSGGGGSEVQLVESGGGLVQPGRSLRLSCAASGFTFHHYAMHWVRQAPGKGLEWVSGISWNGNKITYADSVKGRFTISRDNAKNSLYLQMNSLRAEDTALYYCVRDSSLFIVGAPTFEHWGRGTLVTVSS | – | – | – | – | – | – | – | 5600
TPP-801 PSMA-6GS-CD137-6GS-HSA (bispecific antibody) EVQLVESGGGVVQPGRSLRLSCAASGFSFSGYGMHWVRQAPGKGLEWVAYISYDGSNKYYADSVKGRFTISRDNSKNTLYLQMNSLRAEDTAVYYCAKDPAWGLRLGESSSYDFDIWGQGTMVTVSSGGGGSGGGGSGGGGSGGGGSGGGGSGGGGSEVQLVESGGGVVQPGGSLRLSCAASGFTFSNYGMHWVRQAPGKGLEWVAVISNDGNTKTYADSVKGRFTISRDNSKNTLYLQMNSLRAEDTAVYYCAQDETTTVTASYYFDYWGQGTLVTVSSGGGGSGGGGSGGGGSGGGGSGGGGSGGGGSEVQLVESGGGLVKPGGSLRLSCAASGFTFSNYNMNWVRQAPGKGLEWVSSISSAGTHIYYADSVKGRFTISRDNAKNSLYLQMNSLRAEDTAVYYCARDPHSTGWYKDFDYWGQGTLVTVSS | – | – | – | – | – | – | – | 1300
